The values below come from PMC10273338.

This experiment addresses BAG3 (Bcl-2 associated athanogene protein 3) (human) (UniProt O95817). In words: SPR; BIACORE X; BAG3 amine-coupled to a CM5 chip (3400 RU); running buffer 10 mM HEPES pH 7.4, 150 mM NaCl, 3 mM EDTA, 0.005% P20; 10 uL/min; Langmuir 1:1 fit. A general note: Surface plasmon resonance follows binding to a sensor surface in real time, without labels.

Chain of BAG3 (Bcl-2 associated athanogene protein 3), O95817 1-575 (natural protein; other documents disagree on this pair) (O95817 whole entry): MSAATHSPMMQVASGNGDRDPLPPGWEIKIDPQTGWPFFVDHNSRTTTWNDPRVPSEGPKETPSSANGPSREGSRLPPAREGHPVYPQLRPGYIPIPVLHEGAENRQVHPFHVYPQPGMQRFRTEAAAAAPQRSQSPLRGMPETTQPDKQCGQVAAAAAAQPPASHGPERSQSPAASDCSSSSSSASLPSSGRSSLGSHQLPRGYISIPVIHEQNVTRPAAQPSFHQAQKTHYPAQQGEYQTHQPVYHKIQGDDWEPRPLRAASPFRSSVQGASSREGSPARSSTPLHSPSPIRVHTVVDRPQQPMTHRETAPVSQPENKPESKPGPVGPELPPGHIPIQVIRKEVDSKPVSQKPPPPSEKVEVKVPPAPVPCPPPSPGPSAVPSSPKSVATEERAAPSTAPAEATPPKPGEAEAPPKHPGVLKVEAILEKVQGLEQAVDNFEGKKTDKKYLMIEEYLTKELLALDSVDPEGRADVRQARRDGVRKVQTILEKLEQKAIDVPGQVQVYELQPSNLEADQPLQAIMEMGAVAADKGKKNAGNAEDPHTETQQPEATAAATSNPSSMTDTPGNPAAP

Consider “BAG3 (Bcl-2 associated athanogene protein 3), O95817 1-575 (natural protein; other documents disagree on this pair)”, for which the Ka was 5.3e+07 M⁻¹, the Kd was 0.019 µM, the koff is 0.0003 s⁻¹ and the on-rate constant (kon) is 16000 M⁻¹ s⁻¹.

For orientation: Kd means a measure of binding affinity in units of concentration. Read a low Kd as a tighter complex. What is called koff is the first-order rate constant of dissociation. Read a low koff as slow dissociation. A word on the kon: it is a measure of how fast the partners come together. The low end stands for slow association, the high end for fast association.
